Results: patent US10221217

Legend:
[1] = biological target: c1d1_N386D displayed on yeast (S. cerevisiae); assay: Fab titration on yeast-displayed construct, flow cytometry
[2] = biological target: c1d1_b10disulf displayed on yeast (S. cerevisiae); assay: as above
[3] = biological target: c1d1_v2 displayed on yeast (S. cerevisiae); assay: as above
[4] = biological target: eOD_N276D; assay: method not stated
[5] = biological target: eOD_L260F_N276D; assay: method not stated
[6] = biological target: eOD_L260F; assay: method not stated
[7] = biological target: eOD_T257S_S375W (HIV-1 HxB2 (engineered)); assay: method not stated
[8] = biological target: eOD_T257S_L260F_S375W; assay: method not stated
[9] = biological target: eOD_VD(-)_g8; assay: Kd, method not stated; construct from 293 cells
[10] = biological target: eOD_VD(-)_g4; assay: Kd, method not stated; construct from 293 cells
[11] = biological target: eOD_VD(-)_g2; assay: Kd, method not stated; construct from 293 cells
[12] = biological target: eOD_VD(-)_g3; assay: Kd, method not stated; construct from 293 cells
[13] = biological target: eOD_VD(-)_g7; assay: Kd, method not stated; construct from 293 cells
[14] = biological target: eOD_VD(-)_g5; assay: Kd, method not stated; construct from 293 cells
[15] = biological target: eOD_VD(-)_g6; assay: Kd, method not stated; construct from 293 cells
[16] = biological target: eOD_VH1-2_v6.0 (HIV-1 HxB2 (engineered)); assay: dissociation constant, SPR (FIG. 3)
[17] = biological target: ODml(N386) (Human immunodeficiency virus type 1 group M subtype B (isolate HXB2) (HIV-1)) (UniProt P04578); assay: SPR, IgG captured by anti-human IgG, construct as analyte
[18] = biological target: c1d1_minglyc; assay: as above
[19] = biological target: c1d1_N386D; assay: as above
[20] = biological target: c2d1_b10disulf; assay: as above
[21] = biological target: c1d1_v2; assay: as above
[22] = biological target: wild-type core GP120 (Human immunodeficiency virus type 1 group M subtype B (isolate HXB2) (HIV-1)) (UniProt P04578); assay: as above
[23] = biological target: c1d1_N386D; assay: SPR and ITC
[24] = biological target: eOD_VH1-2_v6.0 (HIV-1 HxB2 (engineered)); assay: SPR, IgG captured by anti-human IgG, eOD as analyte, 1:1 fit with mass transport
[25] = biological target: c1d1_N386D; assay: ITC
[26] = biological target: c1d1_v2; assay: ITC
[27] = biological target: c1d1_b10disulf; assay: ITC
[28] = biological target: eOD_N276D_N463D; assay: method not stated; protein from 293 cells
[29] = biological target: ODml(N386) (Human immunodeficiency virus type 1 group M subtype B (isolate HXB2) (HIV-1)) (UniProt P04578); assay: SPR (value differs from Table 1)
[30] = biological target: c1d1_N386D; assay: method not given
[31] = biological target: ODml(d1_disulf) (Human immunodeficiency virus type 1 group M subtype B (isolate HXB2) (HIV-1)) (UniProt P04578); assay: SPR, IgG captured by anti-human IgG, construct as analyte
[32] = biological target: OD(D386) (Human immunodeficiency virus type 1 group M subtype B (isolate HXB2) (HIV-1)) (UniProt P04578); assay: as above
[33] = biological target: c1d1_b2021; assay: as above
[34] = biological target: ODml(D386) (Human immunodeficiency virus type 1 group M subtype B (isolate HXB2) (HIV-1)) (UniProt P04578); assay: as above
[35] = biological target: c1d1_b10disulf; assay: as above
[36] = biological target: c1d1_N386D; assay: ITC, b12 IgG
[37] = biological target: ODml(d1_disulf) (Human immunodeficiency virus type 1 group M subtype B (isolate HXB2) (HIV-1)) (UniProt P04578); assay: SPR
[38] = biological target: c1d1_minglyc; assay: SPR
[39] = biological target: c1d1_b2021; assay: SPR
[40] = biological target: c1d1_N386D; assay: SPR
[41] = biological target: ODml(D386) (Human immunodeficiency virus type 1 group M subtype B (isolate HXB2) (HIV-1)) (UniProt P04578); assay: SPR
[42] = biological target: c1d1_v2; assay: SPR
[43] = biological target: eOD_VH1-2_v6.0 (HIV-1 HxB2 (engineered)); assay: dissociation constant, method not stated
[44] = biological target: eOD_VH1-2_v6.0 (HIV-1 HxB2 (engineered)); assay: dissociation constant, SPR (FIG. 2)
[45] = biological target: eOD_VH1-2_v4.0 (HIV-1 HxB2 (engineered)); assay: method not stated
[46] = biological target: eOD_N276D_N463D; assay: method not stated
[47] = biological target: eOD_VH1-2_v6.0 (HIV-1 HxB2 (engineered)); assay: SPR, IgG captured by anti-human IgG, eOD as analyte, 1:1 kinetic fit
[48] = biological target: core_gp120_VH1-2_v2.0 (HIV-1 BaL (engineered)); assay: SPR
[49] = biological target: eOD_VH1-2_v1.0 (HIV-1 HxB2 (engineered)); assay: SPR

VRC01 Fab
Kd [1]: > 50 nM
Kd [2]: > 50 nM
Kd [3]: > 50 nM

VRC01 IgG (mature) (antibody)
Kd [4]: 27.8 nM
Kd [5]: 11.9 nM
Kd [6]: 14.3 nM
Kd [7]: 90 nM
Kd [8]: 8.6 nM
Kd [9]: 2.8 nM
Kd [10]: 7.3 nM
Kd [11]: 7 nM
Kd [12]: 4.7 nM
Kd [13]: 109 nM
Kd [14]: 15 nM
Kd [15]: 4.6 nM
Kd [16]: 1.7 nM
Kd [17]: 298 nM
Kd [18]: 7.5 nM
Kd [19]: 139 nM
Kd [20]: 289 nM
Kd [21]: 249 nM
Kd [22]: 3.9 nM
fold weaker KD than core gp120 [23]: 35 to 50 fold
Kd [24]: 1.7 nM
koff [24]: 0.000251 s⁻¹
kon [24]: 148000 M⁻¹ s⁻¹
Kd [25]: 200 nM
Kd [26]: 100 nM
Kd [27]: 100 nM
fold improvement of KD over c1d1 N386D [27]: 2 fold
Kd [28]: 4 nM
Kd [29]: 530 nM
Kd [30]: 80 nM
fold weaker affinity than core gp120 [30]: > 10 fold

b12 Fab
Kd [1]: 21 nM
Kd [3]: 11 nM

b12 IgG (antibody)
Kd [9]: 7 nM
Kd [10]: 76 nM
Kd [11]: 96 nM
Kd [12]: 21.6 nM
Kd [13]: 421 nM
Kd [14]: 132 nM
Kd [15]: 514 nM
Kd [31]: 175 nM
Kd [32]: 1600 nM
Kd [17]: 1900 nM
Kd [18]: 31 nM
Kd [33]: 120 nM
Kd [19]: 59 nM
Kd [20]: 148 nM
Kd [34]: 530 nM
Kd [21]: 30 nM
Kd [22]: 4.5 nM
Kd [35]: 200 nM
Kd [36]: 65 nM
fold improvement of KD over OD(D386) [37]: 9 fold
fold improvement of KD over ODml [37]: 3 fold
fold improvement of KD over c1d1 N386D [38]: 2 fold
Kd [39]: 148 nM
fold weaker KD than c1d1 N386D [39]: 2.5 fold
fold improvement of KD over OD(386) [40]: 28 fold
fold improvement of KD over ODml [40]: 9 fold
fold improvement of KD over OD(D386) [41]: 3 fold
fold improvement of KD over c1d1 N386D [42]: 2 fold
fold improvement of KD over c1d1 b10disulf [42]: 8 fold

germline NIH45-46 (antibody)
Kd [43]: 408 nM

germline VRC01 (antibody)
Kd [44]: 44 nM
Kd [4]: 640000 nM
Kd [5]: 149000 nM
Kd [45]: 100 nM
Kd [6]: > 500000 nM
Kd [46]: 380000 nM
Kd [47]: 43.6 nM
koff [47]: 0.000683 s⁻¹
kon [47]: 15700 M⁻¹ s⁻¹
Kd [48]: 1600 nM
Kd [49]: 40000 nM

mature NIH45-46 (antibody)
Kd [43]: 3.8 nM
